Columns and labels:
Settings in all cases: tags: amine-coupled to CM5 chip in SPR; soluble in cell assays; chain copies: 2
[1] = biological target: T1, NGF (nerve growth factor) (human, UniProt P01138 P01138:122-241); assay: cell_activity; neurite outgrowth, NGF 0.38 nM; SPR binding; TF-1 IC50 0.186 nM
Experimental: (§1) The neurite outgrowth inhibitory activity of the aptamer obtained in Example 1 was evaluated by using Neuroscreen-1 cell, which is a subclone of PC-12 cells.
(§2) The cells (2500 cells per well) were cultured for one day in an RPMI-1640 medium containing 2.5% horse serum and 1.25% fetal bovine serum in a 96 well flat-bottom plate coated with collagen type IV. […] Two days later, the cytoplasm and nuclei were stained using Cellomics Neurite Outgrowth Kit (manufactured by Thermo Scientific), and neurite length per cell was measured by Cellomics ArrayScan VTI (manufactured by Thermo Scientific). With the neurite length per cell obtained by the addition of NGF alone as inhibitory activity 0%, and that of the cell obtained by NGF free culture for 2 days as inhibitory activity 100%, the inhibitory activity of the aptamer was calculated from the neurite length per cell obtained by culturing with the addition of NGF and the aptamer in mixture. When the inhibitory activity was 0% or below, ‘0%’ is indicated.

[2] = biological target: T1, NGF (nerve growth factor); assay: cell_activity; neurite outgrowth, NGF 0.38 nM; SPR binding; TF-1 IC50 0.052 nM
Experimental: as §1, §2

[3] = biological target: T1, NGF (nerve growth factor); assay: cell_activity; neurite outgrowth, NGF 0.38 nM; SPR binding; TF-1 IC50 0.175 nM
Experimental: as §1, §2

[4] = biological target: T1, NGF (nerve growth factor); assay: cell_activity; neurite outgrowth, NGF 0.38 nM; SPR binding; TF-1 IC50 0.061 nM
Experimental: as §1, §2

[5] = biological target: T1, NGF (nerve growth factor); assay: cell_activity; neurite outgrowth, NGF 0.38 nM; SPR binding; TF-1 IC50 0.211 nM
Experimental: as §1, §2

[6] = biological target: T1, NGF (nerve growth factor); assay: cell_activity; neurite outgrowth, NGF 1.1 nM; SPR binding; TF-1 IC50 >10 nM
Experimental: as §1, §2

[7] = biological target: T1, NGF (nerve growth factor); assay: cell_activity; neurite outgrowth, NGF 0.38 nM; SPR binding; TF-1 IC50 0.041 nM
Experimental: as §1, §2

[8] = biological target: T1, NGF (nerve growth factor); assay: cell_activity; neurite outgrowth, NGF 0.38 nM; SPR binding; TF-1 IC50 0.073 nM
Experimental: as §1, §2

[9] = biological target: T1, NGF (nerve growth factor); assay: cell_activity; neurite outgrowth, NGF 1.1 nM; SPR binding; TF-1 IC50 2.4 nM
Experimental: as §1, §2

[10] = biological target: T1, NGF (nerve growth factor); assay: cell_activity; neurite outgrowth, NGF 1.1 nM; SPR binding; TF-1 IC50 6.8 nM
Experimental: as §1, §2

[11] = biological target: T1, NGF (nerve growth factor); assay: cell_activity; neurite outgrowth, NGF 1.1 nM; SPR binding; TF-1 IC50 4.3 nM
[12] = biological target: T1, NGF (nerve growth factor); assay: cell_activity; neurite outgrowth, NGF 0.38 nM; SPR binding; TF-1 IC50 0.105 nM
Experimental: as §1, §2

[13] = biological target: T1, NGF (nerve growth factor); assay: cell_activity; neurite outgrowth, NGF 1.1 nM; SPR binding; TF-1 IC50 3.4 nM
[14] = biological target: T1, NGF (nerve growth factor); assay: cell_activity; neurite outgrowth, NGF 0.38 nM; SPR binding; TF-1 IC50 <0.1 nM
Experimental: as §1, §2

[15] = biological target: T1, NGF (nerve growth factor); assay: cell_activity; neurite outgrowth, NGF 0.38 nM; SPR binding; TF-1 IC50 0.110 nM
Experimental: as §1, §2

T1 sequence (P01138 122-241, one chain of several): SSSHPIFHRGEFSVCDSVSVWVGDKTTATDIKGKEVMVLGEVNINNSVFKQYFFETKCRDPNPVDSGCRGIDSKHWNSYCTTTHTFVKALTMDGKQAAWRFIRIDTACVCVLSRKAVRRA

B1: aptamer ID 26(22) (mixed)
RNA: GGGAGACUCGCCAGAGUUGAAAGAAACCCAAAUAAGUGUGCGCAC
modifications: 2'-F pyrimidines except dT at 8; 2'-OMe purines except 2'-OH at 3,19,20,26; 5' idT and 3' idT
IC50 [1]: 0.293 nM

B2: aptamer ID 26(12) (ssRNA)
RNA: GGGAGACUCGCCAGAGUUGAAAGAAACCCAAAUAAGUGUGCGCAC
modifications: 2'-F pyrimidines; 2'-OMe purines except 2'-OH at 3,19-22,24,26; 5' idT and 3' idT
IC50 [2]: 0.036 nM

B3: aptamer ID 26(21) (mixed)
RNA: GGGAGACUCGCCAGAGUUGAAAGAAACCCAAAUAAGUGUGCGCAC
modifications: 2'-F pyrimidines except dC at 7; 2'-OMe purines except 2'-OH at 3,19,20,26; 5' idT and 3' idT
IC50 [3]: 0.283 nM

B4: aptamer ID 26(44) (ssRNA)
RNA: GGGAGACUCGCCAGAGUUGAAAGAAACCCAAAUAAGUGUGCGCAC
modifications: 2'-F pyrimidines except 2'-OMe at 7,11,12,17,33,45; 2'-OMe purines except 2'-OH at 3,19,20,26; 5' idT and 3' idT
IC50 [4]: 0.074 nM

B5: aptamer ID 26(31) (ssRNA)
RNA: GGGAGACUCGCCAGAGUUGAAAGAAACCCAAAUAAGUGUGCGCAC
modifications: 2'-F pyrimidines except 2'-OMe at 7; 2'-OMe purines except 2'-OH at 3,19,20,26; 5' idT and 3' idT
IC50 [5]: 0.3 nM

GGGAGACUCGCCAGAGUUGAAAGAAACCCAAAUAAGUGUGCGCAC (ssRNA, 2'-F pyrimidines; 2'-OMe at 22; other purines 2'-OH) [aptamer ID 26(8)]
IC50 [6]: < 1 nM

B6: aptamer ID 26(9) (ssRNA)
RNA: GGGAGACUCGCCAGAGUUGAAAGAAACCCAAAUAAGUGUGCGCAC
modifications: 2'-F pyrimidines; 2'-OMe purines except 2'-OH at 3,5,19-22,26; 5' idT and 3' idT
IC50 [7]: 0.052 nM

B7: aptamer ID 26(42) (mixed)
RNA: GGGAGACUCGCCAGAGUUGAAAGAAACCCAAAUAAGUGUGCGCAC
modifications: 2'-F pyrimidines except dC at 9,29 and dT at 33,37; 2'-OMe purines except 2'-OH at 3,19,20,26; 5' idT and 3' idT
IC50 [8]: 0.083 nM

GGGAGACUCGCCAGAGUUGAAAGAAACCCAAAUAAGUGUGCGCAC (ssRNA, 2'-F pyrimidines; 2'-OMe at 21; other purines 2'-OH) [aptamer ID 26(7)]
IC50 [9]: < 1 nM

GGGAGACUCGCCAGAGUUGAAAGAAACCCAAAUAAGUGUGCGCAC (ssRNA, 2'-F pyrimidines; 2'-OMe at 1,2,4,5,23-26; other purines 2'-OH) [aptamer ID 26(4)]
IC50 [10]: < 1 nM

GGGAGACUCGCCAGAGUUGAAAGAAACCCAAAUAAGUGUGCGCAC (ssRNA, 2'-F pyrimidines; 2'-OMe at 6,10,13-16; other purines 2'-OH) [aptamer ID 26(3)]
IC50 [11]: < 1 nM

GGGAGACUCGCCAGAGUUGAAAGAAACCCAAAUAAGUGUGCGCAC (ssRNA, 2'-F pyrimidines; 2'-OMe purines except 2'-OH at 3,19,20; 5' idT and 3' idT) [aptamer ID 26(18)]
IC50 [12]: 0.084 nM

GGGAGACUCGCCAGAGUUGAAAGAAACCCAAAUAAGUGUGCGCAC (ssRNA, 2'-F pyrimidines; 2'-OMe at 30-32,34,35; other purines 2'-OH) [aptamer ID 26(5)]
IC50 [13]: < 1 nM

B8: aptamer ID 26(38) (ssRNA)
RNA: GGGAGACUCGCCAGAGUUGAAAGAAACCCAAAUAAGUGUGCGCAC
modifications: 2'-F pyrimidines except 2'-OMe at 7; 2'-OMe purines except 2'-OH at 3,19,20,26; PS between 20 and 21; 5' idT and 3' idT
IC50 [14]: 0.145 nM

GGGAGACUCGCCAGAGUUGAAAGAAACCCAAAUAAGUGUGCGCAC (ssRNA, 2'-F pyrimidines; 2'-OMe purines except 2'-OH at 3,19,20,24; 5' idT and 3' idT) [aptamer ID 26(20)]
IC50 [15]: 0.016 nM
